# Laboratory results: article PMC8301893, “Identification of HSP47 Binding Site on Native Collagen and Its Implications for the Development of HSP47 Inhibitors” (Biomolecules, 2021)
# B1: human HSP47 (heat shock protein 47), amino acids 19-418, C-terminal His-tag (natural protein)
# chain: AEVKKPAAAAAPGTAEKLSPKAATLAERSAGLAFSLYQAMAKDQAVENILVSPVVVASSLGLVSLGGKATTASQAKAVLSAEQLRDEEVHAGLGELLRSLSNSTARNVTWKLGSRLYGPSSVSFADDFVRSSKQHYNCEHSKINFRDKRSALQSINEWAAQTTDGKLPEVTKDVERTDGALLVNAMFFKPHWDEKFHHKMVDNRGFMVTRSYTVGVMMMHRTGLYNYYDDEKEKLQIVEMPLAHKLSSLIILMPHHVEPLERLEKLLTKEQLKIWMGKMQKKAVAISLPKGVVEVTHDLQKHLAGLGLTEAIDKNKADLSRMSGKKDLYLASVFHATAFELDTDGNPFDQDIYGREELRSPKLFYADHPFIFLVRDTQSGSLLFIGRLVRPKGDKMRDEL
# What was measured:
# [1] = molecular target: Collagen from calf skin (Sigma-Aldrich, Cat No: C9791) (calf) (UniProt P02453)
# UniProt P02453, sequence (P02453 162-1217, chain 1 of 2): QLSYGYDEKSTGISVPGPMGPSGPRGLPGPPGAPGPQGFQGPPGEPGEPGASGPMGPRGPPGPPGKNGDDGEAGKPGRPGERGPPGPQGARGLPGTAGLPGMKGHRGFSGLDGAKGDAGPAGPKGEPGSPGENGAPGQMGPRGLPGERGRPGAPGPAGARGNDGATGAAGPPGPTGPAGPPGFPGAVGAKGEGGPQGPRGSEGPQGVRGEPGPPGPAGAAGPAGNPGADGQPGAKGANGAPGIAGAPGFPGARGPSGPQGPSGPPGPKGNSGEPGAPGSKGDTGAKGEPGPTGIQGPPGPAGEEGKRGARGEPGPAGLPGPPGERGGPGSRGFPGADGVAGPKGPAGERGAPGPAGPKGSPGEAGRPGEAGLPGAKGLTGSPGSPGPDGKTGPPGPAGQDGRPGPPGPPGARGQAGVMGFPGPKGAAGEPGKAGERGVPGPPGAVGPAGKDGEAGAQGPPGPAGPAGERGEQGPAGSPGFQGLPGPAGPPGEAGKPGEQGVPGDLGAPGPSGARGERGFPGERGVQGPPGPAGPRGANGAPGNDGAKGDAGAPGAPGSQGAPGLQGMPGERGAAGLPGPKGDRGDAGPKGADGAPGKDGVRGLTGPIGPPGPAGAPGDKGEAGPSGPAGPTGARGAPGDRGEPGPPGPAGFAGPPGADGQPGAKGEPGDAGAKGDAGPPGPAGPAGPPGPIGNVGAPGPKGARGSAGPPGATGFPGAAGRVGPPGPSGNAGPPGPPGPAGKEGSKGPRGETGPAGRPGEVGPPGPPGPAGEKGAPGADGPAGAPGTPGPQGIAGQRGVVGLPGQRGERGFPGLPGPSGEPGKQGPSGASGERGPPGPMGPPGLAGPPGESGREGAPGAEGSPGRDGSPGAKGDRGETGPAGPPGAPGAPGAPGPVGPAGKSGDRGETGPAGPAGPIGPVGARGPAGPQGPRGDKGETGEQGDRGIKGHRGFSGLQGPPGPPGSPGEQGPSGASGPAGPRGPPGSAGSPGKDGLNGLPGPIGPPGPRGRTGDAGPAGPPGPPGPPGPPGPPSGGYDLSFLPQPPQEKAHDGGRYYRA
# UniProt P02453, sequence (P02465 80-1117, chain 2 of 2, further chain): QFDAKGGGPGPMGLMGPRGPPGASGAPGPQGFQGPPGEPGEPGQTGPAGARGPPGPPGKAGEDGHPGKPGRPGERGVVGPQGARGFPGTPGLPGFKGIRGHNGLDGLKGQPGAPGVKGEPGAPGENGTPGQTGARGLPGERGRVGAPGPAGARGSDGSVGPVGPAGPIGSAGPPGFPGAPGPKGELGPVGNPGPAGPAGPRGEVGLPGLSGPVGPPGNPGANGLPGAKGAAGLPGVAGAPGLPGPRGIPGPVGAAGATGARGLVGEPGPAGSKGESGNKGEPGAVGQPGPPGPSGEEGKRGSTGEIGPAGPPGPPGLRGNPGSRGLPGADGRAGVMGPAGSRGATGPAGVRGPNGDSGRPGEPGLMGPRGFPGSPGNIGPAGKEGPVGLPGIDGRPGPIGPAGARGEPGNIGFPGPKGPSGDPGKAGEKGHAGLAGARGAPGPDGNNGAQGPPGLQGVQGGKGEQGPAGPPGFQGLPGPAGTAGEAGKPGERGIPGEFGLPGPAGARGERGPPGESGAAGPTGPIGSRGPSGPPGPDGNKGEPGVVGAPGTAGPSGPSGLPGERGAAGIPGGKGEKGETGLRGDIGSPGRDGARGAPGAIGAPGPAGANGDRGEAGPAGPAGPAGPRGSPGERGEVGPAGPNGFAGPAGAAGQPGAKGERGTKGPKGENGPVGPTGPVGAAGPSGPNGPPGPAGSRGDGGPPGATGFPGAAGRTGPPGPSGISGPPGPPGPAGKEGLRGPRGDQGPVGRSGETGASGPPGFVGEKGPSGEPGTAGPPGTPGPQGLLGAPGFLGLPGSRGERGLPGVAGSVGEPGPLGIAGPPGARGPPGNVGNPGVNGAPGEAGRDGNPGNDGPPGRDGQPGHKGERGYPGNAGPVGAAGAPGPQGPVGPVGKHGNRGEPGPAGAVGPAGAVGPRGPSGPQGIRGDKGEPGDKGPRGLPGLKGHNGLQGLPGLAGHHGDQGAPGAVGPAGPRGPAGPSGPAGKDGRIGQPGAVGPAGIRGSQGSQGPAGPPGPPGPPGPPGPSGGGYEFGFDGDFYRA
# [2] = molecular target: Integrin peptide 1 (GFOGER flanked by [GPP]5 at both ends); assay: ELISA; solid-phase binding assay (SPBA): peptides coated at 10 µg/mL overnight at 4 °C on Immulon 2HB 96-well plates, blocked with TBS containing 5% BSA; 1 µg/mL recombinant HSP47 for 1 h at room temperature; HRP-conjugated anti-His antibody, TMB, A450; means of three independent experiments
binder,measurement,setting,value
B1,IC50 of the small molecule Com II against HSP47 (2.6 μM) in the turbidity assay of collagen fibril formation,[1],50 to 100 µM
same,IC50 of the small molecule Hs1 against HSP47 (2.6 μM) in the turbidity assay of collagen fibril formation,[1],97 µM
same,IC50 of the small molecule Hs55 against HSP47 (2.6 μM) in the turbidity assay of collagen fibril formation,[1],55 µM
same,Mean A450,[2],> 2 A450
